Results taken from PMC3089955.

B1: DENV-2 NS1 wild type without hexa-histidine tag, P29990 776-1127 (natural protein)
chain: DSGCVVSWKNKELKCGSGIFITDNVHTWTEQYKFQPESPSKLASAIQKAHEEGICGIRSVTRLENLMWKQITPELNHILSENEVKLTIMTGDIKGIMQAGKRSLRPQPTELKYSWKTWGKAKMLSTESHNQTFLIDGPETAECPNTNRAWNSLEVEDYGFGVFTTNIWLKLKEKQDVFCDSKLMSAAIKDNRAVHADMGYWIESALNDTWKIEKASFIEVKNCHWPKSHTLWSNGVLESEMIIPKNLAGPVSQHNYRPGYHTQITGPWHLGKLEMDFDFCDGTTVVVTEDCGNRGPSLRTTTASGKLITEWCCRSCTLPPLRYRGEDGCWYGMEIRPLKEKEENLVNSLVTA

Experiments:
[1] = target: DENV-2 NS1 N130Q with carboxy-terminal hexa-histidine tag (Dengue virus serotype 2 (DENV-2), strain 16681); experiment: non-reducing SDS-PAGE with Western blot
[2] = target: T1, DENV-2 NS1 wild type without hexa-histidine tag (Dengue virus serotype 2 (DENV-2), strain 16681), P29990; experiment: SEC; conditions: remark: other sources report otherwise
T1 chain: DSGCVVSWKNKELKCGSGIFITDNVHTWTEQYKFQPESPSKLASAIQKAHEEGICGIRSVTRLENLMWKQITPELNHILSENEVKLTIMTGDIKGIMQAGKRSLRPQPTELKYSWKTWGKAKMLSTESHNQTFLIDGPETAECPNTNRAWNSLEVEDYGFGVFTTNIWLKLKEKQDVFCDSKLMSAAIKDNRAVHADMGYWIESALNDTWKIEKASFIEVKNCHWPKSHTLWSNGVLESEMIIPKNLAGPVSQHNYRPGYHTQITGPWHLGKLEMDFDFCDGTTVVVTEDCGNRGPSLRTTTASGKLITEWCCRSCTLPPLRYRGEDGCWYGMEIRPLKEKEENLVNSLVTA

| Molecule | stoichiometry N [1] | stoichiometry N [2] |
| --- | --- | --- |
| DENV-2 NS1 N130Q with carboxy-terminal hexa-histidine tag (natural protein) | 2 | – |
| B1 | – | 6 |
